This note sets out measurements from patent US7304127.

Values joined by “and” are separate entries in the source; they are usually repeats but may differ in a detail not shown here. Equal entries are not always repeated.

The labels stand for the following.
B1: CXCR4 45-62 (peptide)
peptide: YSIIFLTGIVGNGLVILV
modifications: not checked
B2: CXCR4 53-70 (peptide)
peptide: IVGNGLVILVMGYQKKLR
modifications: not checked
B3: CXCR4 49-66 (peptide)
peptide: FLTGIVGNGLVILVMGYQ
modifications: not checked

One assay concerns the target HIV-1LAI envelope gp120 labeled with radioactive iodine (HIV-1 LAI) (UniProt P03377). Briefly: 125I-gp120, peptide array.
Turning to STRL33 29-46 (peptide), the counts minus background (counts per 20 min) is 534 and 634.

Take CCR5 105-122 (peptide): the counts minus background (counts per 20 min) was 80.

On to STRL33 309-326 (peptide), for which the counts minus background (counts per 20 min) was 112 and 122.

As to STRL33 133-150 (peptide), the counts minus background (counts per 20 min) is 702 and 568.

With STRL33 297-314 (peptide), the counts minus background (counts per 20 min) is 144 and 82.5. Consider CCR5 325-342 (peptide), for which the counts minus background (counts per 20 min) worked out at 100. As for STRL33 41-58 (peptide), the counts minus background (counts per 20 min) is 570 and 284.

On to STRL33 33-50 (peptide), for which the counts minus background (counts per 20 min) was 606 and 372. The same measure, in the same setting: the result for CCR5 221-238 (peptide) reads 102; that for STRL33 109-126 (peptide), 352 and 510; that for STRL33 105-122 (peptide), 500 and 408. On the same count and under the same terms, the result for CCR5 201-218 (peptide) reads 180. The same measure, in the same setting: the result for STRL33 61-78 (peptide) reads 412 and 348.

With CCR5 241-258 (peptide), the counts minus background (counts per 20 min) was 214.

In the case of CCR5 161-178 (peptide), the counts minus background (counts per 20 min) was determined as 118. Consider STRL33 113-130 (peptide), for which the counts minus background (counts per 20 min) is 744 and 908. The same measure, in the same setting: the result for CCR5 237-254 (peptide) reads 121. Same read-out and setting: the result for CCR5 165-182 (peptide) reads 98.

The target of a further assay is HIV-1LAI envelope gp120 labeled with radioactive iodine (HIV-1 LAI), P03377. Description: 125I-gp120, peptide array.
With B1, the counts minus background (counts per 20 min) is 123. On the same count and under the same terms, the result for B2 reads 238.

B3: the counts minus background (counts per 20 min) turned out to be 246.
